Experimental data from the supplement of paper PMC12764529.
± gives the half width of the 95% confidence interval.

How the values were obtained:
[1] = folding stability dG unfold from chymotrypsin proteolysis; higher = more stable
Outline: (§1)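 Unfolding free energy was derived, per protease or combined, by relating Bayesian-fitted K50 values from sequencing counts to a sequence-predicted unfolded-state K50 and a shared folded-state K50. The underlying digests exposed cysteine-free mini-proteins under 80 residues, in a PA-tagged cDNA display construct, to trypsin and chymotrypsin at 11 threefold-diluted concentrations and to a no-protease condition. A filter kept only designs with AlphaFold2 dimer inter-PAE above 15.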

[2] = folding stability dG unfold from trypsin proteolysis; higher = more stable
Outline: as §1

[3] = folding stability dG unfold (combined trypsin and chymotrypsin); higher = more stable
Outline: as §1

| Sequence | folding stability dG unfold [1] [kcal/mol] | folding stability dG unfold [2] [kcal/mol] | folding stability dG unfold [3] [kcal/mol] |
| --- | --- | --- | --- |
| SAGGSAGGSALLEALKALPPNATLTLVTVETRTETVTDADGSTHTRTTTRVTVTTITIRPEDLSAGGSAGGS [r12_805_TrROS_Hall] | 3.67 ± 0.089 | 2.27 ± 0.12 | 3.18 ± 0.12 |
| SAGGSAGGSALPDLEFPFELVEEVEVPVYDPLSDEVLGTVRVWKVRVPGGPELTLVEFDPESAGGSAGGSAG [r3_166_TrMRF] | 1.3 ± 0.047 | 1.27 ± 0.017 | 1.35 ± 0.061 |
| SAGGSAGGSALVVRLENGKEILIEGMSEEEIKELLDKLLPPEEKKNLKIVKVEVFEVEKPESAGGSAGGSAG [r3_340_TrROS_Hall] | 1.14 ± 0.096 | 1.62 ± 0.1 | 1.29 ± 0.18 |
| SAGGSAGGSAMDVFTAALNNKELEEAIKKASPDEKEIEIELPGGKKIRIFRTDDGGYIFEPSAGGSAGGSAG [r3_124_TrMRF] | 1.32 ± 0.11 | 1.8 ± 0.055 | 1.52 ± 0.11 |
| SAGGSAGGSAMETVYIPKEEVEKDPEKLEEIKEKLKKELEEKGKKVEFKEDPNGGYTITVESAGGSAGGSAG [r3_75_JUSTAS] | 0.855 ± 0.029 | 0.343 ± 0.054 | 0.663 ± 0.13 |
| SAGGSAGGSAMETYEIEVNGKLITITRSEDGTYKITDKDTGKTITIPAEDLKKLKPGDKLLSAGGSAGGSAG [r3_256_TrROS_Hall] | 2.18 ± 0.036 | 1.79 ± 0.078 | 2.15 ± 0.14 |
| SAGGSAGGSAMFPDNTTVIEKEVPSSDVESAIEEIKKEYGVENYEVTTEPRPGTVKITVTIKPSAGGSAGGS [r12_929_JUSTAS] | 1.34 ± 0.038 | 1.65 ± 0.064 | 1.53 ± 0.093 |
| SAGGSAGGSAMIEDPATGRVYELDPSVPTVTVYEKTEGEGGEVVEKGVVEADPANPEKALLESAGGSAGGSA [r18_448_JUSTAS] | 0.826 ± 0.073 | 0.45 ± 0.048 | 0.716 ± 0.069 |
| SAGGSAGGSAMIGGGEDGNLVFLVTEDGKPLVLVAPPDEIKKILEELGIKDVVVVKPLPELSAGGSAGGSAG [r3_141_TrMRF] | -0.0844 ± 0.13 | 1.18 ± 0.043 | 0.762 ± 0.1 |
| SAGGSAGGSAMITYTAPGGTPVTVTPDPVTGTLSATFPDGSVITAPVVGDTIPVTVVPPAAVSAGGSAGGSA [r18_405_JUSTAS] | -0.295 ± 0.11 | 1.37 ± 0.023 | 0.851 ± 0.042 |
| SAGGSAGGSAMKEIKIELTYEDEEEAEKKAKEEKEKIKKELEEKGIKVEKITVEIHPPYHHSAGGSAGGSAG [r3_463_JUSTAS] | 1.12 ± 0.067 | -0.647 ± 0.095 | 0.796 ± 0.14 |
| SAGGSAGGSAMKIEIEKTEDTIKVRIKRKDGKEIEIEIPKENMSLEEIKKLAEELGIEKVEPSAGGSAGGSA [r18_83_TrROS_Hall] | 1.63 ± 0.073 | 1.49 ± 0.17 | 1.6 ± 0.17 |
| SAGGSAGGSAMKIPPGETVEEVELSFLPNGEIILKKTTITKKGNTTTVETEVKIVKPDVPLSAGGSAGGSAG [r3_49_JUSTAS] | 0.701 ± 0.067 | 0.877 ± 0.027 | 0.836 ± 0.1 |
| SAGGSAGGSAMKKLEYTIPVPPGTLSPEKVKELFKKKYPEYENKEIKVEFSPDGTVKITVIESAGGSAGGSA [r18_65_JUSTAS] | 3.17 ± 0.037 | 2.38 ± 0.051 | 2.92 ± 0.066 |
| SAGGSAGGSAMKRVTLTFPSTGKTLTFDFTTEEDIEAAIKAALGPEVDPAKVTVTVLPPGAASAGGSAGGSA [r18_350_JUSTAS] | 2.62 ± 0.054 | 1.04 ± 0.054 | 2.12 ± 0.3 |
| SAGGSAGGSAMKTITLKDEKGNPLTAEVEKLPNGTIKITITKPGGEKTTYTIPPGEKITLPVSAGGSAGGSA [r18_115_JUSTAS] | 2.98 ± 0.05 | 2.34 ± 0.16 | 2.77 ± 0.14 |
| SAGGSAGGSAMKVTVEEEELEVEPGETVKIKIRLPNGEEREFSLEDLKKLPPGEAEVEIERVSAGGSAGGSA [r18_394_TrROS_Hall] | 0.729 ± 0.13 | 0.583 ± 0.076 | 0.785 ± 0.18 |
| SAGGSAGGSAMKVVSVEAAPGQTVTVRVLVEDPETQELYELEVTVTVTAPEPVTVELPPEASAGGSAGGSAG [r3_271_TrROS_Hall] | 2.47 ± 0.082 | 1.89 ± 0.15 | 2.03 ± 0.23 |
| SAGGSAGGSAMLLPSEEEAEKAAAELRAKTGWRVTVEKVGTGEDGTVVYRLTVVPPDLPLESAGGSAGGSAG [r3_59_JUSTAS] | 3.234 ± 0.019 | 2.84 ± 0.048 | 3.12 ± 0.06 |
| SAGGSAGGSAMLVALVRVPGTDKPVVARLPREIGREAAEELLREAFPDAEVLEIVEVPEEELSAGGSAGGSA [r18_242_TrMRF] | 1.712 ± 0.012 | 0.447 ± 0.031 | 1.42 ± 0.031 |
| SAGGSAGGSAMPVIELTIKVKTKEEAKKAAEELAKKLEEEFGLKVEVEYDEETKEVKVKIYPSAGGSAGGSA [r18_368_TrROS_Hall] | 1.79 ± 0.068 | 2.25 ± 0.12 | 2.07 ± 0.089 |
| SAGGSAGGSAMQPIRIKITLYNPDNGDTRTYTVEVPDPNMSLDAIAKQLPPGYRIKKVSIMSAGGSAGGSAG [r3_80_TrROS] | 3.815 ± 0.033 | 3.38 ± 0.13 | 3.68 ± 0.13 |
| SAGGSAGGSAMQRVEIYFPGLKKVFTKPFKSLEEVEEAVKELLGPEYNPEKVEIKILPENAESAGGSAGGSA [r18_350_TrMRF] | 1.5 ± 0.14 | 0.912 ± 0.054 | 1.27 ± 0.17 |
| SAGGSAGGSAMRPVSFTLVSTETAPNGVKVTKYVLTEPTGPAREYTSTNLLVEGSSLTDLSSAGGSAGGSAG [r3_261_JUSTAS] | 0.239 ± 0.1 | 0.0443 ± 0.084 | 0.202 ± 0.087 |
| SAGGSAGGSAMTFTVNSEEEVEKLKKLGGVTKTSEEPGKVTLSAPNLPPELQEKIKEVIQKSAGGSAGGSAG [r3_398_JUSTAS] | 0.434 ± 0.27 | -0.548 ± 0.2 | -0.111 ± 0.26 |
| SAGGSAGGSAMTIEELAKKGYEIRIVGPDGKVRTFKVGESLEEIAEKLGLAPGAKIEIRKVSAGGSAGGSAG [r3_216_TrROS_Hall] | 2.07 ± 0.027 | 1.48 ± 0.024 | 1.88 ± 0.049 |
